Test [1] has as its target T1, human Gremlin N33T (C-terminal His-tag) (human, UniProt O60565 25-184).
T1 construct: culture supernatant used
T1 chain: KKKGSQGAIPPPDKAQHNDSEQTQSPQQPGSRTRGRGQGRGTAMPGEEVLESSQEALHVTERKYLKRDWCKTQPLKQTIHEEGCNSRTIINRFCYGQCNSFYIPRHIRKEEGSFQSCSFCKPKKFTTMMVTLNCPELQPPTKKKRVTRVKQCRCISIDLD
Briefly: BLI (Octet): antibody loaded on AHC sensor, supernatant of the gremlin variant as analyte. The method, then: (§1) The supernatant for Gremlin WT and mutants to be tested were added in the Association Column of the plate, 100 ul per well. Media or KD buffer was used as a reference control. Put AHC sensors in the 1st Baseline Column for 60 s to get the 1st baseline, then in the Loading Column for 300 s to capture the Gremlin antibody. After that, put the sensors in the 2nd Baseline Column for 60 s to get the 2nd baseline. Then put them in the Association Column for 300 s to let Gremlin/Gremlin Ab associate completely, put the sensors in the dissociation Column for 300 s. Analyze the group data by ForteBio (Octet96)
In general terms: Biolayer interferometry detects binding as a change in optical thickness at a sensor tip.

The target in test [2] is T2, human Gremlin_Q27P/N33T (C-terminal His-tag) (human, UniProt O60565 25-184 at identity 1.00)).
T2 construct: culture supernatant used
T2 chain: T1 chain with Q27P
The description is as above. The method, then: as §1

The target in test [3] is T3, human Gremlin_Q27P (C-terminal His-tag) (human, UniProt O60565 25-184).
T3 construct: culture supernatant used
T3 chain: T1 chain with Q27P, T33N
The description is as above. The method, then: as §1

The target of test [4] is T4, HGREM1-His (ACRO) (human, UniProt O60565 25-184).
T4 construct: Lys25-Asp184 of NP_037504 with C-terminal polyhistidine tag (ACRO GR1-H52H3); they are put here; also called hGREM1 (ACRO); human gremlin (ACRO)
T4 sequence: T1 chain with T33N
Briefly: ELISA, coated hGREM1 (ACRO). Background: An ELISA detects its analyte on a solid surface through an enzyme-linked reagent.

Test [5] addresses T4, HGREM1-His (ACRO). Briefly: blocking ELISA, Human Gremlin-1 binding to BMP7; column OD450. As to the method: (§2) In addition, the ability of serial dilutions of antibodies provided herein to block Gremlin binding to human BMP2/4/7 was also examined via ELISA. Plates were coated with recombinant human BMP2/4/7 (0.5 μg/ml) overnight and then serial dilutions of antibodies were incubated with 1 μg/ml of human Gremlin-his modified for 1 h at RT before this complex was added to coated plates and allowed to incubate for an additional hour at RT. The plates were then washed and added with anti-his HRP (GenScript). Plates were then developed with a TMB solution and stopped by adding stop solution. The plates were read on a plate reader at 450 nm. […] The chimeric anti-gremlin 1 antibodies (69H5-chi) and chimeric anti-gremlin 1 antibodies (22F1-chi) also can inhibit the binding of gremlin to BMP2 and BMP4 (see, FIG. 3E and FIG. 3F). The chimeric anti-gremlin 1 antibodies (56C11-chi) can inhibit the binding of gremlin to BMP2 (see, FIG. 3E).

Test [6] deals with T4, HGREM1-His (ACRO). Briefly: blocking ELISA, Human Gremlin-1 binding to BMP7; column Percentage. The method, then: as §2
Test [7] addresses T4, HGREM1-His (ACRO). Briefly: blocking ELISA, Human Gremlin-1 binding to BMP4; column Percentage. As to the method: as §2

Substitutions are numbered along the chain they refer to.

B1: 14E3 (antibody, V domains shown)
VH: QIQLVQSGPELKKPGETVKISCKTSGSTFTTYGMAWMKQAPGKGLTWMGWINTLSGEPTYADDFKGRFAFSLKTSANTAYLQINNLKNEDAATYFCAREPMDYWGQGTSVIVSS
VL: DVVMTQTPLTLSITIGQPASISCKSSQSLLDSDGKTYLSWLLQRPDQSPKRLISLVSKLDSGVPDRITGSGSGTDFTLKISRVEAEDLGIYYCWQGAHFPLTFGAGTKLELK
notes: mouse hybridoma antibody; also called hybridoma 14E3; anti-gremlin1 antibody 14E3
Take B1: the binding result in test [1], in test [2] and in test [3] was “binds” each time. Moreover, in the test with HGREM1-His (ACRO) [4], a half-maximal effect (EC50) was put at 0.0136 µg/mL.

B2: 36F5 (antibody, V domains shown)
VH: QVQLQQSGAELARPGASVKLSCKASGYSFTSSGIGWVKQRSGQGLEWIGEIYPRSGNTYNNEKFKGKATLTADKSSSTVYMELRSLTSEDSAVYFCVREAYSHHYYAMDYWGQGTSVTVFS
VL: DVLMTQTPLSLPVSLGGQASISCRSSQSLLHSNGNTYLEWYLQKPGQSPKLLIYKVSNRFSGVPDRLSGSGSGTDFTLKISRVEAEDLGVYYCFQGSHVPFTFGSGTKLEIN
notes: mouse hybridoma antibody; also called hybridoma 36F5
Turning to B2, the IC50 – broadly, the concentration at which inhibition is half-maximal – with HGREM1-His (ACRO) [5] was 0.683 µg/mL; with HGREM1-His (ACRO) [6] it was 0.683 µg/mL; with HGREM1-His (ACRO) [7], 0.512 µg/mL. In addition, the EC50 (commonly the concentration needed to bring the measured effect to its halfway point) with HGREM1-His (ACRO) [4] was 0.00587 µg/mL.

The record behind these values is US20240294622A1 (SUZHOU TRANSCENTA THERAPEUTICS, published 2024).
